Assay results reported in US20060058230A1 (published 2006).
Non-standard residues stand in square brackets, D forms with d. No end group written: not given here. 2Nal = N[C@@H](Cc1ccc2ccccc2c1)C(=O)O; Nle = CCCC[C@H](N)C(=O)O; βAla = NCCC(=O)O

Key:
[1] = target: T1, recombinant hPTH1-receptor (human, UniProt Q03431 27-593); assay: cell-based or functional assay
T1 sequence (looked up): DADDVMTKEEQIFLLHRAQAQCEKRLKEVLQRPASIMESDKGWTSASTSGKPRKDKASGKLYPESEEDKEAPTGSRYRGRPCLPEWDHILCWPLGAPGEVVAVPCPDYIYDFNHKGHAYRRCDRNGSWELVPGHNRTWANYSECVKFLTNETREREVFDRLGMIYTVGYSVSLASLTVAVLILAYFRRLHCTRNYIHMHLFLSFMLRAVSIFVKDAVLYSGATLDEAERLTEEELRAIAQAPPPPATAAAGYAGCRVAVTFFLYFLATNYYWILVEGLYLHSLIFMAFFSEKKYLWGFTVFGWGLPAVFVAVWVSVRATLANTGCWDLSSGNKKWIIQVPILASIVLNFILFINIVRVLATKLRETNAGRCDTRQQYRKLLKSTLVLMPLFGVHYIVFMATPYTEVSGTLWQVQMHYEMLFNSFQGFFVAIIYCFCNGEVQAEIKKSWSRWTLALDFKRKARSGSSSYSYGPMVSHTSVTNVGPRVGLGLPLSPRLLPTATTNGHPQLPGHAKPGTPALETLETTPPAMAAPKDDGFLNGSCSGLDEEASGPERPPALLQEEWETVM

[2] = target: T1, recombinant hPTH1-receptor; assay: competition with 125I-[Nle8,18,Nal23,Tyr34]bPTH(1-34)NH2 on HEK293/C21 cells with hPTH1-receptor
Description: Human embryonic kidney (HEK293) cells, stably transfected with recombinant hPTH1-receptor (HEK293/C21 cell line, ˜400,000 receptors/cell) (Pines, M., Adams, A. E., Stueckle, S., Bessalle, R., Rashti-Behar, V., Chorev, M., Rosenblatt, M., and Suva, L. J. Endocrinology 1994, 135, 1713-1716), were maintained in D-MEM medium supplemented with 10% fetal bovine serum and […] glutamine at 37° C. in a humidified atmosphere of 95% air/5% CO₂. The medium was changed every 3-4 days, and the cells were subcultured every week. Ligand stimulated adenylyl cyclase activity and radioreceptor competition binding assays were performed on confluent cultures, 1-3 days after a change of medium.
[Nle^{8,18},Nal²³,Tyr³⁴]bPTH(1-34)-NH₂ was radioiodinated and the crude material was purified as previously described (Roubini, E., Duong, L. T., Gibbons, S. W., Leu, C. T., Caulfield, M. P., Chorev, M., and Rosenblatt, M. Biochemistry 1992, 31, 4026-4033). Briefly, 67 μg of peptide in 50 μL phosphate buffer, pH 7.4, in a borosilicate tube, coated with 10 μg Iodogen® (Pierce Chemical), were treated at room temperature with 2 mCi [¹²⁵I]Na for 12 min, followed by dilution with 200 μL of 0.1% TFA in water.
Cells were plated in 24-well tissue culture dishes (Corning Glass Works, Corning, N.Y.) and grown to subconfluency. […] After incubation, cells were washed twice with PBS and lysed with 0.1 M NaOH. Radioactivity in the lysate was measured in a γ-counter (Analytic GammaTrac™ 1193).

B1: [Nle^8,β-Ala^18, Nal^23, Tyr^34]bPTH(1-34)NH2 (peptide)
peptide: AVSEIQF[Nle]HNLGKHLSS[βAla]ERVE[2Nal]LRKKLQDVHNY-NH2
modifications: N-terminus assumed
SMILES: CCCC[C@H](NC(=O)[C@H](Cc1ccccc1)NC(=O)[C@H](CCC(N)=O)NC(=O)[C@@H](NC(=O)[C@H](CCC(=O)O)NC(=O)[C@H](CO)NC(=O)[C@@H](NC(=O)[C@H](C)N)C(C)C)[C@@H](C)CC)C(=O)N[C@@H](Cc1c[nH]cn1)C(=O)N[C@@H](CC(N)=O)C(=O)N[C@@H](CC(C)C)C(=O)NCC(=O)N[C@@H](CCCCN)C(=O)N[C@@H](Cc1c[nH]cn1)C(=O)N[C@@H](CC(C)C)C(=O)N[C@@H](CO)C(=O)N[C@@H](CO)C(=O)NCCC(=O)N[C@@H](CCC(=O)O)C(=O)N[C@@H](CCCNC(=N)N)C(=O)N[C@H](C(=O)N[C@@H](CCC(=O)O)C(=O)N[C@@H](Cc1ccc2ccccc2c1)C(=O)N[C@@H](CC(C)C)C(=O)N[C@@H](CCCNC(=N)N)C(=O)N[C@@H](CCCCN)C(=O)N[C@@H](CCCCN)C(=O)N[C@@H](CC(C)C)C(=O)N[C@@H](CCC(N)=O)C(=O)N[C@@H](CC(=O)O)C(=O)N[C@H](C(=O)N[C@@H](Cc1c[nH]cn1)C(=O)N[C@@H](CC(N)=O)C(=O)N[C@@H](Cc1ccc(O)cc1)C(N)=O)C(C)C)C(C)C
notes: Synthetic analog of bovine PTH(1-34), carboxamide at the C-terminus
- EC50 (half maximal stimulation of adenylate cyclase) [1]: 3.9 nM
- IC50 [2]: 285 nM
